# Patent US20040038876A1 (published 2004)
# T1: Shh receptor molecules on C3H10T1/2 cells (UniProt Q61115 1-1434)
# T1 sequence (looked up): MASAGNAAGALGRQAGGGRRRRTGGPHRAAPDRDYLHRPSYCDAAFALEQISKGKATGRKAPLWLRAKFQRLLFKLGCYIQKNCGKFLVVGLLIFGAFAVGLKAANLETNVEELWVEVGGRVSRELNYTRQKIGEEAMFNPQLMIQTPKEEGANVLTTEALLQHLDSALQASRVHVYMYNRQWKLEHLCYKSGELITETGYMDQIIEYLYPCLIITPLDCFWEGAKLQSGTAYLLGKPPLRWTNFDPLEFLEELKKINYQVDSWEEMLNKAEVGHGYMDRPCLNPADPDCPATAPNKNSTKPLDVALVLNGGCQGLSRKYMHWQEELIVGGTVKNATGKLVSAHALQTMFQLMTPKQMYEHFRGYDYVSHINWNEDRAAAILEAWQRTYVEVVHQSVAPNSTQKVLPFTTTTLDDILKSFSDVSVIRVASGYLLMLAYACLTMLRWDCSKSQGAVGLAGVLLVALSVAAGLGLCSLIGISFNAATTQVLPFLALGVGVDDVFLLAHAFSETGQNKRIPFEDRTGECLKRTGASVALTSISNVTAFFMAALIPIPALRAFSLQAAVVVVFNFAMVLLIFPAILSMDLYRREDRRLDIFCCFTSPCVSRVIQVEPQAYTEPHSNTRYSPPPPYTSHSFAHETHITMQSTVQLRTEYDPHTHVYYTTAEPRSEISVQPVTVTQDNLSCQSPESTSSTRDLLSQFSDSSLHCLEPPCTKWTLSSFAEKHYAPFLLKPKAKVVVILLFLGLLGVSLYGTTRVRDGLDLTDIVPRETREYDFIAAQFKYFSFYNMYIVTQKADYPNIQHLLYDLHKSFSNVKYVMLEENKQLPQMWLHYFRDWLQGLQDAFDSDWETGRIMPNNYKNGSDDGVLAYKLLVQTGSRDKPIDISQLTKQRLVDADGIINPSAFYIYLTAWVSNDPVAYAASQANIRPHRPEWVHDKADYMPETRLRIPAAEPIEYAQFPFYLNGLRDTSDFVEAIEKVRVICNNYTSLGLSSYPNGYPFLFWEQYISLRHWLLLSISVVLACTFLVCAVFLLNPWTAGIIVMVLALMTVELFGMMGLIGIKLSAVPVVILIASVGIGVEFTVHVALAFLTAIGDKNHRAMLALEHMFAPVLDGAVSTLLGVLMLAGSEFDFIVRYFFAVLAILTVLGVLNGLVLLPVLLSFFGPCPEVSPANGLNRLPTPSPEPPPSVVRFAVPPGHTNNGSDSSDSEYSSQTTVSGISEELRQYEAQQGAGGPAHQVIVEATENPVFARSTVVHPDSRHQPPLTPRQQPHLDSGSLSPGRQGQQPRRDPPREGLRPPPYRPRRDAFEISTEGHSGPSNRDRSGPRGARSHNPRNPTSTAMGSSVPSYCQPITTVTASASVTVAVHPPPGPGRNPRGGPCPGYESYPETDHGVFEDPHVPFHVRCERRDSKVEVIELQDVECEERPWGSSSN
# Molecular target: T1, Shh receptor molecules on C3H10T1/2 …
# Assay: cell-based or functional assay
row,Binder,Potency (IC50) in C3H10T1/2 assay (alkaline phosphatase induction) [µg/mL]
1,"mutant 19 (Shh C1II/A169C + Y57C), HPE-modified (ligand, beta-(4-hydroxyphenyl) ethylmaleimide on thiol of Cys57, Cys169) not shown",0.3
2,"mutant 24 (Shh C1II/A169C + S112C), unmodified (ligand) not shown",0.4
3,"mutant 17 (Shh C1II/A169C + N27C), Napth-modified (ligand, N-(1-naphthyl) maleimide on thiol of Cys27, Cys169) not shown",1.5
4,"mutant 22 (Shh C1II/A169C + S154C), 5 K PEG (ligand, 5 K PEG maleimide on thiol of Cys154, Cys169) not shown",5
5,"mutant 18 (Shh C1II/A169C + N46C), unmodified (ligand) not shown",0.4
6,"mutant 18 (Shh C1II/A169C + N46C), 5 K PEG (ligand, 5 K PEG maleimide on thiol of Cys46, Cys169) not shown",0.3
7,"mutant 18 (Shh C1II/A169C + N46C), 20 K PEG (ligand, 20 K PEG maleimide on thiol of Cys46, Cys169) not shown",0.3
8,"mutant 22 (Shh C1II/A169C + S154C), unmodified (ligand) not shown",1
9,"mutant 21 (Shh C1II/A169C + N92C), HPE-modified (ligand, beta-(4-hydroxyphenyl) ethylmaleimide on thiol of Cys92, Cys169) not shown",2
10,"mutant 18 (Shh C1II/A169C + N46C), Napth-modified (ligand, N-(1-naphthyl) maleimide on thiol of Cys46, Cys169) not shown",0.4
11,"mutant 22 (Shh C1II/A169C + S154C), Napth-modified (ligand, N-(1-naphthyl) maleimide on thiol of Cys154, Cys169) not shown",2
12,"mutant 21 (Shh C1II/A169C + N92C), Napth-modified (ligand, N-(1-naphthyl) maleimide on thiol of Cys92, Cys169) not shown",4
13,"mutant 25 (Shh C1II/A169C + S133C), 5 K PEG (ligand, 5 K PEG maleimide on thiol of Cys133, Cys169) not shown",2
14,"mutant 20 (Shh C1II/A169C + N68C), Napth-modified (ligand, N-(1-naphthyl) maleimide on thiol of Cys68, Cys169) not shown",0.3
15,"mutant 19 (Shh C1II/A169C + Y57C), 5 K PEG (ligand, 5 K PEG maleimide on thiol of Cys57, Cys169) not shown",0.2
16,"mutant 22 (Shh C1II/A169C + S154C), HPE-modified (ligand, beta-(4-hydroxyphenyl) ethylmaleimide on thiol of Cys154, Cys169) not shown",2
17,"mutant 20 (Shh C1II/A169C + N68C), unmodified (ligand) not shown",0.3
18,"mutant 19 (Shh C1II/A169C + Y57C), 20 K PEG (ligand, 20 K PEG maleimide on thiol of Cys57, Cys169) not shown",0.3
19,"mutant 24 (Shh C1II/A169C + S112C), HPE-modified (ligand, beta-(4-hydroxyphenyl) ethylmaleimide on thiol of Cys112, Cys169) not shown",0.2
20,"mutant 17 (Shh C1II/A169C + N27C), 20 K PEG (ligand, 20 K PEG maleimide on thiol of Cys27, Cys169) not shown",8
21,"mutant 24 (Shh C1II/A169C + S112C), NEM-modified (ligand, N-ethyl maleimide on thiol of Cys112, Cys169) not shown",0.2
22,"mutant 24 (Shh C1II/A169C + S112C), Pyrene-modified (ligand, N-(1-pyrenyl) maleimide on thiol of Cys112, Cys169) not shown",0.25
23,"mutant 20 (Shh C1II/A169C + N68C), 5 K PEG (ligand, 5 K PEG maleimide on thiol of Cys68, Cys169) not shown",0.2
24,"mutant 24 (Shh C1II/A169C + S112C), 20 K PEG (ligand, 20 K PEG maleimide on thiol of Cys112, Cys169) not shown",2
25,"mutant 23 (Shh C1II/A169C + K82C), unmodified (ligand) not shown",0.2
26,"mutant 25 (Shh C1II/A169C + S133C), Napth-modified (ligand, N-(1-naphthyl) maleimide on thiol of Cys133, Cys169) not shown",0.6
27,"mutant 17 (Shh C1II/A169C + N27C), unmodified (ligand) not shown",0.4
28,"mutant 18 (Shh C1II/A169C + N46C), Pyrene-modified (ligand, N-(1-pyrenyl) maleimide on thiol of Cys46, Cys169) not shown",0.5
